Results from the supplement of paper PMC9170038.

Tested on: MS2 coat protein
Experiment: apparent KD of MS2 coat protein; designed switch direction (-1 OFF switch, 1 ON switch): 1; higher = weaker reporter binding
How it was run: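 Three titration conditions were used: no input, 200 uM small-molecule ligand, and an oligonucleotide input. In each, SNAP-549-labelled MS2 coat protein was raised from 0.7 or 1.5 nM, doubling, to 3 µM over designed RNA switches transcribed on Illumina chips by stalled E. coli RNA polymerase. Curve fits of normalised cluster fluorescence gave values whose per-design median over clusters is the apparent KD.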

[1] = input ligand: microRNA oligo, concentration not stated
[2] = Eterna round: R95, input ligand: FMN 200 uM
[3] = Eterna round: R95, input ligand: microRNA oligo, concentration not stated
[4] = Eterna round: R95, input ligand: none

| Sequence | apparent KD of MS2 coat protein (input ligand: FMN 200 uM) [nM] | apparent KD of MS2 coat protein [1] [nM] | apparent KD of MS2 coat protein (input ligand: none) [nM] | apparent KD of MS2 coat protein [2] [nM] | apparent KD of MS2 coat protein [3] [nM] | apparent KD of MS2 coat protein [4] [nM] |
| --- | --- | --- | --- | --- | --- | --- |
| UUAACAUGAGGAUCACCCAUGUAUACGUAGUUUGCAUUUUGACAGGAUAUUGAAUAUCUAUAUAGCAAGAAGGGUCGUUAGUCU [JR_SSNG3_Sub007] (Eterna round: R96, puzzle: Same State NG 3) | 61 | 49.1 | 56.7 |  |  |  |
| UUAACAUGAGGAUCACCCAUGUAUGCGUUGCUUGCAUUUUGACAGGAUAUUGUUUAUCCAUAUAGCAAGAAGGGUCGUUAGUCU [JR_SSNG3_Sub010] (Eterna round: R96, puzzle: Same State NG 3) | 80.9 | 63.1 | 79.1 |  |  |  |
| UUAAGCCACGAGCAGGAUAUGUAUUAAAAUACAUGAGGAUCACCCAUGUGCAGGUGUAACACCUGACAGAAGGGCCAAUCGCGGC [Soondi - 1] (puzzle: Same State 2) |  |  |  | 256 | 366 | 461 |
| UUAAUAAAGUAAGGAUAUACAUGAGGAUCACUCGUAGAAGGUACUAUACAUGAGGAUCACCCAUGUUCCGGUCAGAAGACUGGA [Mat - Same State NG 1 - JL mod - D4] (Eterna round: R96, puzzle: Same State NG 1) |  | 440 |  |  |  |  |
| UUAAUAAUGAUAGGAUAUACAUGAGGAAUCCUCGUAGAAGGAUCAUGACAUGAGGAUCACCCAUGUAACGCUCAGAAGAGCGUA [Mat - Same State NG 1 - JL mod - D43] (Eterna round: R96, puzzle: Same State NG 1) | 738 | 30.9 | 516 |  |  |  |
| UUAAUAAUGAUAGGAUAUACAUGAGGAAUUCUCGUAGAAGGAUCAUGACAUGAGGAUCACCCAUGUAACGCUCGAAAGAGCGUA [Mat - Same State NG 1 - JL mod - D39] (Eterna round: R96, puzzle: Same State NG 1) | 513 | 394 | 662 |  |  |  |
| UUAAUGAAGUAAGGAUAUACAUGAGGAUCACUCGUAGAAGGUACUAUACAUGAGGAUCACCCAUGUUCCGGUCCGUAGACUGGA [JL SSNG1 1.02] (Eterna round: R96, puzzle: Same State NG 1) | 1600 | 236 | 841 |  |  |  |
| UUAAUGAUGAUAGGAUAUACAUGAGGAAUUCUCGUAGAAGGAUCAUGACAUGAGGAUCACCCAUGUAUCGCUCGAUAGAGCGUA [Mat - Same State NG 1 - JL mod - D34] (Eterna round: R96, puzzle: Same State NG 1) | 844 | 142 | 158 |  |  |  |
| UUAAUGAUGUAAGGAUAUACAUGAGGAUUUCUCGUAGAAGGUACAAGACAUGAGGAUCACCCAUGUGUCGCUCGAAAGAGCGUA [Mat - Same State NG 1 - JL mod - D20] (Eterna round: R96, puzzle: Same State NG 1) | 282 | 113 | 316 |  |  |  |
| UUAAUUUACUGAGGAUAUCGUGUCGACUGAGGUGACAUGAGGAUCACCCAUGUGAGAAGUGGUAUCGAGAAGGCAGUAUUCAUA [JR_SSNG2_Sub022] (Eterna round: R96, puzzle: Same State NG 2) | 92.6 | 306 | 506 |  |  |  |
| UUACAGUGCGGGUAGGAUAUGUAGGGUGGUACAUGAGGAUCACCCAUGUAUCCACCCUUCGACCGGCAGAAGGGCCUGUCACUAC [Atarzale] (Eterna round: R96, puzzle: Same State 2) | 14 | 12.1 | 19.8 |  |  |  |
| UUACUCAUGUAAGGAUAUGCAGCCGAAACGGCUGCAGAAGGUACUAUAAUACAUGAGGAUCACCCAUGUCUUUUUAAUUUAGAC [Mat - Same State NG 1 - JL mod - D82] (Eterna round: R96, puzzle: Same State NG 1) |  | 37 |  |  |  |  |
| UUAGUCAUGUAAGGAUAUGCAGCCGUUUCGGCUGCAGAAGGUACUAUAAUUACAUGAGGAUCACCCAUGUUAUAAAAUUUAUAU [JL SSNG1 1.24] (Eterna round: R96, puzzle: Same State NG 1) | 19.9 | 25 | 36.6 |  |  |  |
| UUAUAACAUGAGGAUCACCCAUGUCAACAAAGUCGAGGAUAUGGGCAUAGAGGAUAAGAACCAGAAGGCGAAUAUU [Mat - Same State 1 - Mod of UCT - D39] (puzzle: Same State 1) |  |  |  | 70.8 | 150 | 163 |
